According to IntAct's records for PubMed 20802463:

What follows are substances tested against rfa2_human RPA2 (UniProt P15927).
Sequence of rfa2_human RPA2 (P15927 whole entry): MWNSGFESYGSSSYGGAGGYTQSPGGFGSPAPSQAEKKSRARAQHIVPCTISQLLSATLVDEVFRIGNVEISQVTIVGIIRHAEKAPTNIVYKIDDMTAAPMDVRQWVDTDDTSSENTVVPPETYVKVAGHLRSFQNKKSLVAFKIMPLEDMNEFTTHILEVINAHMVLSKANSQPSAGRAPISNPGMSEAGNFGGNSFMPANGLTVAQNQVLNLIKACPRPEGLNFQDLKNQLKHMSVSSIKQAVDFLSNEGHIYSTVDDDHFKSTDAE

effect of a mutation on the interaction	Substance
disrupting interaction	Bifunctional 3'-5' exonuclease/ATP-dependent helicase WRN (Homo sapiens), Q14191 T1152A
disrupting interaction	Bifunctional 3'-5' exonuclease/ATP-dependent helicase WRN (Homo sapiens), Q14191 S991A
disrupting interaction	Bifunctional 3'-5' exonuclease/ATP-dependent helicase WRN (Homo sapiens), Q14191 S1256A

Molecular target: rfa2_human RPA2 (UniProt P15927)
Remark: another data set of the same source

effect of a mutation on the interaction	Substance
disrupting interaction	Bifunctional 3'-5' exonuclease/ATP-dependent helicase WRN (Homo sapiens), Q14191 S1141A
disrupting interaction	Bifunctional 3'-5' exonuclease/ATP-dependent helicase WRN (Homo sapiens), Q14191 S1292A
disrupting interaction	Bifunctional 3'-5' exonuclease/ATP-dependent helicase WRN (Homo sapiens), Q14191 S1058A
